{"source": "paper doi:10.1101/480269v2", "assay_in_all_cases": "purified protein", "conditions_in_all_cases": "Mg2+ as the activating cation", "key": {"purified protein [1]": {"substrate": "NC(=O)C1=CN([C@@H]2O[C@H](COP(=O)(O)OP(=O)(O)OC[C@H]3O[C@@H](n4cnc5c(N)ncnc54)[C@H](O)[C@@H]3O)[C@@H](O)[C@H]2O)C=CC1"}, "purified protein [2]": {"substrate": "NC(=O)c1ccc[n+]([C@@H]2O[C@H](COP(=O)(O)OP(=O)(O)OC[C@H]3O[C@@H](n4cnc5c(N)ncnc54)[C@H](O)[C@@H]3O)[C@@H](O)[C@H]2O)c1"}, "purified protein [3]": {"substrate": "Nc1ncnc2c1ncn2[C@@H]1O[C@H](COP(=O)(O)O)[C@@H](O)[C@H]1O"}, "purified protein [4]": {"substrate": "NC(=O)c1ccc[n+]([C@@H]2O[C@H](COP(=O)([O-])O)[C@@H](O)[C@H]2O)c1"}}}
{"protein": "UshA (Escherichia coli K-12) (protein) YEQDKTYKITVLHTNDHHGHFWRNEYGEYGLAAQKTLVDGIRKEVAAEGGSVLLLSGGDINTGVPESDLQDAEPDFRGMNLVGYDAMAIGNHEFDNPLTVLRQQEKWAKFPLLSANIYQKSTGERLFKPWALFKRQDLKIAVIGLTTDDTAKIGNPEYFTDIEFRKPADEAKLVIQELQQTEKPDIIIAATHMGHYDNGEHGSNAPGDVEMARALPAGSLAMIVGGHSQDPVCMAAENKKQVDYVPGTPCKPDQQNGIWIVQAHEWGKYVGRADFEFRNGEMKMVNYQLIPVNLKKKVTWEDGKSERVLYTPEIAENQQMISLLSPFQNKGKAQLEVKIGETNGRLEGDRDKVRFVQTNMGRLILAAQMDRTGADFAVMSGGGIRDSIEAGDISYKNVLKVQPFGNVVVYADMTGKEVIDYLTAVAQMKPDSGAYPQFANVSFVAKDGKLNDLKIKGEPVDPAKTYRMATLNFNATGGDGYPRLDNKPGYVNTGFIDAEVLKAYIQKSSPLDVSVYEPKGEVSWQ", "values": [{"measurement": "Km", "setting": "purified protein [1]", "result": "7.0 ± 0.8", "unit": "µM"}, {"measurement": "kcat", "setting": "purified protein [1]", "result": "10.0 ± 0.2", "unit": "s⁻¹"}, {"measurement": "Km", "setting": "purified protein [2]", "result": "5.3 ± 0.6", "unit": "µM"}, {"measurement": "kcat", "setting": "purified protein [2]", "result": "19.3 ± 0.9", "unit": "s⁻¹"}, {"measurement": "Km", "setting": "purified protein [3]", "result": "1.2 ± 0.1", "unit": "µM"}, {"measurement": "kcat", "setting": "purified protein [3]", "result": "405 ± 4", "unit": "s⁻¹"}, {"measurement": "Km", "setting": "purified protein [4]", "result": "11.1 ± 1.3", "unit": "µM"}, {"measurement": "kcat", "setting": "purified protein [4]", "result": "1492 ± 31", "unit": "s⁻¹"}]}
